Measured values: patent US20110257373A1 (published 2011)

B1: DC-SIGN peptide (9xHIS tag, linker and the C-terminal end of DC-SIGN) (peptide)
peptide: HHHHHHHHHSGSGKKSAASCSRDEEQFLSPAPATPNPPPA
notes: also called HIS tagged DC-SIGN peptide
B2: LIP1-33 (other)
VH: EVQLLESGGGLVQPGGSLRLSCAASGFTFPSGTMGWVRQAPGKGLEWVSYIDPSGFMTYYADSVKGRFTISRDNSKNTLYLQMNSLRAEDTAVYYCAKSIVPRSGTFDYWGQGTLVTVSS
notes: Human VH domain antibody (dAb); also called LIP1-33 phage

What was measured:
LIP1-33 = biological target: B2; assay: competition phage ELISA; HIS tagged peptide in solution as competitor (data not shown)
human DC-SIGN [1] = biological target: T1, human DC-SIGN (human, UniProt Q9NNX6 62-404, limits assumed); assay: phage ELISA: DC-SIGN coated on the wells, serial dilutions of LIP1-33 phage, detection with anti-M13 antibody-HRP and TMB, OD450
T1 construct: Coated on ELISA wells; also called CD209; DC-SIGN protein
T1 sequence: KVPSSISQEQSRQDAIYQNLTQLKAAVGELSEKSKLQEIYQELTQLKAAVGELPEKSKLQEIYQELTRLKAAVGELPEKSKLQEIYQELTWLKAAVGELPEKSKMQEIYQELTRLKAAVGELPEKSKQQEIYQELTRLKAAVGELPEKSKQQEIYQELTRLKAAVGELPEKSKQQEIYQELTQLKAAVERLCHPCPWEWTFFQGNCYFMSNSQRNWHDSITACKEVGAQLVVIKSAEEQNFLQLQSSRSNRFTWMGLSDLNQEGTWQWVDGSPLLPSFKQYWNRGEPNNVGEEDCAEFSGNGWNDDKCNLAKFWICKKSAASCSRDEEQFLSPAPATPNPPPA
Procedure: (§1) Phage particles from LIP1-33 were prepared, and serial dilutions of phage particles were tested in ELISA. The ELISA wells were coated overnight at 4° C. with DC SIGNR, neutravidin, DC SIGN or DC SIGN peptide (1-10 μg/ml in PBS or 0.1 M NaHCO₃ buffer, pH 9.6). After blocking the wells with PBS containing 2% skimmed-milk powder (PBSM), phage was incubated in PBSM for 1 hr. After washing with PBS, bound phage were detected using a conjugate of horseradish peroxidase with an anti-M13 monoclonal antibody (Amersham) using 3,3′,5,5′-tetramethylbenzidine as substrate. HEL4 and VKdummy are non-binding negative controls.
(§2) For phage ELISA, the ELISA wells were coated overnight at 4° C. with DC SIGN or DC SIGNR (R&D Cat nr 162-D2) at (1-10 μg/ml in PBS or 0.1 M NaHCO₃ buffer, pH 9.6). After blocking the wells with PBS containing 2% skimmed-milk powder (PBSM), phage was incubated in PBSM for 1 hr. After washing with PBS, bound phage were detected using a conjugate of horseradish peroxidase with an anti-M13 monoclonal antibody (Amersham) using 3,3′,5,5′-tetramethylbenzidine as substrate.

DC-SIGNR = biological target: T2, DC-SIGNR (Homo sapiens (Human), UniProt Q9H2X3 78-399, limits assumed); assay: phage ELISA: DC-SIGNR coated on the wells, serial dilutions of LIP1-33 phage, detection with anti-M13 antibody-HRP and TMB, OD450
T2 construct: Bought (R&D Cat nr 162-D2)
T2 sequence: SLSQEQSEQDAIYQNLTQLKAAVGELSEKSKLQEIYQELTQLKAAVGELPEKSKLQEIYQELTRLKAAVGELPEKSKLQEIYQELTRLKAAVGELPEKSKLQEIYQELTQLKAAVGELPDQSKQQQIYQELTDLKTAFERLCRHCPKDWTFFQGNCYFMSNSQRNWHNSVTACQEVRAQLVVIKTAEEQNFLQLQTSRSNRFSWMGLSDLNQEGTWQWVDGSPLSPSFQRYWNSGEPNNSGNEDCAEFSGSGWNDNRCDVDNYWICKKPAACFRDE
Procedure: as §1, §2

[2] = biological target: B1; assay: phage ELISA: DC-SIGN peptide coated on the wells, serial dilutions of LIP1-33 phage, detection with anti-M13 antibody-HRP and TMB, OD450
Procedure: as §1

human DC-SIGN [3] = biological target: T1, human DC-SIGN; assay: phage ELISA
human DC-SIGN [4] = biological target: T1, human DC-SIGN; assay: phage ELISA: DC-SIGN coated on the wells, serial dilutions of phage particles, detection with anti-M13 antibody-HRP and TMB, OD 450
Procedure: as §1, with “individual LIP1 clones” for “LIP1-33”, “DC” for “DC SIGNR, neutravidin, DC”, “SIGN” for “SIGN or DC SIGN peptide”, “substrate.” for “substrate. HEL4 and VKdummy are non-binding negative controls.”
as §2

| Binder | binding result (human DC-SIGN [3]) | binding result (human DC-SIGN [4]) | also measured |
| --- | --- | --- | --- |
| B1 |  |  | binding result (LIP1-33): binds |
| B2 |  |  | binding result (human DC-SIGN [1]): binds; binding result (DC-SIGNR): no binding; binding result [2]: binds |
| LIP1-27 (other) VH: EVQLLESGGGLVQPGGSLRLSCAASGFTFEQTDMHWARQAPGKGPEWVSSISPLGAFTYYADSVKGRFTISRDNSKNTLYLQMNSLRAEDTAVYYCAKSPLVRNNGQFDYWGQGTLVTVSS | binds |  |  |
| 1-12 (other, human VK domain antibody, tested as phage particles; also called LIP1-12; LIP1-12 phage) VK dAb: DIQMTQSPSSLSASVGDRVTITCRASRPIGTNLYWYQQKPGKAPKLLIVGGSFLQSGVPSRFSGSGSGTDFTLTISSLQPEDFATYYCGQRARYPGTFGQGTKVEIKR |  | binds |  |
| LIP1-29 (other, all other claims print 34) VH: EVQLLESGGGLVQPGGSLRLSCAASGFTFDRRAMGWVRQAPGKGLEWVSSIESDGTRTYYADSVKGRFTISRDNSKNTLYLQMNSLRAEDTAVYYCAKHPGSSYVFDYWGQGTLVTVSS |  | binds |  |
| LIP1-25 (other) VH: EVQLLESGGGLVQPGGSLRLSCAASGFTFPDADMVWVRQAPGKGLEWVSSISDHGFNTYYADSVKGRFTISRDNSKNTLYLQMNSLRAEDTAVYYCAKSPLATFDYWGQGTLVTVSS | binds |  |  |
| LIP1-30 (other, all other claims print 29) VH: EVQLLESGGGLVQPGGSLRLSCAASGFTFSGYSMAWVRQAPGKGLEWVSQIGPLGVKTYYADSVKGRFTISRDNSKNTLYLQMNSLRAEDTAVYYCAKLTSDAHDFDYWGQGTLVTVSS | binds |  |  |
| 1-26 (other, human VH domain antibody, tested as phage particles; also called LIP1-26; LIP1-26 phage) VH dAb: EVQLLESGGGLVQPGGSLRLSCAASGFTFSHYTMSWVRQAPGKGLEWVSSISSTGFKTYYADSVKGRFTISRDNSKNTLYLQMNSLRAEDTAVYYCAKWNPHRSTYFDYWGQGTLVTVSS |  | binds |  |
| LIP1-28 (other) VH: EVQLLESGGGLVQPGGSLRLSCAASGFTFVATPMHWVRQAPGKGLEWVSAISGSGGSTYYADSVKGRFTISRDNSKNTLYLQMNSLRAEDTAVYYCAKGWDPSLERFDYWGQGTLVTVSS | binds |  |  |
| 1-13 (other, human VK domain antibody, tested as phage particles; also called LIP1-13; LIP1-13 phage) VK dAb: DIQMTQSPSSLSASVGDRVTITCRASQGIWQELKWYQQKPGKAPRLLIYRGSSLQSGVPSRFSGSGSGTDFTLTISSLQPEDFATYYCQQSFYPPYTFGQGTKVEIKR |  | binds |  |
| 1-23 (other, human VK domain antibody, tested as phage particles; also called LIP1-23; LIP1-23 phage) VK dAb: DIQMTQSPSSLSASVGDRVTITCRASQDIWRELRWYQQKPGKAPKLLIYRASNLQSGVPSRLSGSGSGTDFTLTISSLQPEDFATYYCQQTFYPPYTFGQGTKVEIKR |  | binds |  |
| 1-15 (other, human VK domain antibody, tested as phage particles; also called LIP1-15; LIP1-15 phage) VK dAb: DIQMTQSPSSLSASVGDRVTITCRASRAIGTYLAWYQQKPGKAPKLLILWGSVLQSGVPSRFSGSGSGTDFTLTISSLQPEDFATYYCAQLAQRPSTFGQGTKVEIKR |  | binds |  |
